From patent EP2182008A2 (ICOS Corporation, dated 2010) come the findings set out here.

The chains are these.
B3: soluble ICAM-1/IgG1 fusion protein (Fc fusion, UniProt P05362 28-480, looked up)
chain: QTSVSPSKVILPRGGSVLVTCSTSCDQPKLLGIETPLPKKELLLPGNNRKVYELSNVQEDSQPMCYSNCPDGQSTAKTFLTVYWTPERVELAPLPSWQPVGKNLTLRCQVEGGAPRANLTVVLLRGEKELKREPAVGEPAEVTTTVLVRRDHHGANFSCRTELDLRPQGLELFENTSAPYQLQTFVLPATPPQLVSPRVLEVDTQGTVVCSLDGLFPVSEAQVHLALGDQRLNPTVTYGNDSFSAKASVSVTAEDEGTQRLTCAVILGNQSQETLQTVTIYSFPAPNVILTKPEVSEGTEVTVKCEAHPRAKVTLNGVPAQPLGPRAQLLLKATPEDNGRSFSCSATLEVAGQLIHKNQTRELRVLYGPRLDERDCPGNWTWPENSQQTPMCQAWGNPLPELKCLKDGTFPLPIGESVTVTRDLEGTYLCRARSTQGEVTRKVTVNVLSPRYE
notes: also called ICAM-I/IgG; not shown: IgG1 portion
B5: VCAM-1/IgG1 fusion protein (seven extracellular immunoglobulin-like domains) (Fc fusion, UniProt P19320 25-698, looked up)
chain: FKIETTPESRYLAQIGDSVSLTCSTTGCESPFFSWRTQIDSPLNGKVTNEGTTSTLTMNPVSFGNEHSYLCTATCESRKLEKGIQVEIYSFPKDPEIHLSGPLEAGKPITVKCSVADVYPFDRLEIDLLKGDHLMKSQEFLEDADRKSLETKSLEVTFTPVIEDIGKVLVCRAKLHIDEMDSVPTVRQAVKELQVYISPKNTVISVNPSTKLQEGGSVTMTCSSEGLPAPEIFWSKKLDNGNLQHLSGNATLTLIAMRMEDSGIYVCEGVNLIGKNRKEVELIVQEKPFTVEISPGPRIAAQIGDSVMLTCSVMGCESPSFSWRTQIDSPLSGKVRSEGTNSTLTLSPVSFENEHSYLCTVTCGHKKLEKGIQVELYSFPRDPEIEMSGGLVNGSSVTVSCKVPSVYPLDRLEIELLKGETILENIEFLEDTDMKSLENKSLEMTFIPTIEDTGKALVCQAKLHIDDMEFEPKQRQSTQTLYVNVAPRDTTVLVSPSSILEEGSSVNMTCLSQGFPAPKILWSRQLPNGELQPLSENATLTLISTKMEDSGVYLCEGINQAGRSRKEVELIIQVTPKDIKLTAFPSESVKEGDTVIISCTCGNVPETWIILKKKAETGDTVLKSIDGAYTIRKAQLKDAGVYECESKNKVGSQLRSLTLDVQGRENNKDYFSPE
notes: domain: seven extracellular immunoglobulin-like domains; also called VCAM-I/Ig; VCAM-I/IgG; not shown: IgG1 portion
B6: soluble ICAM-R/IgG1 fusion protein (Fc fusion, UniProt P32942 30-485, looked up)
chain: QEFLLRVEPQNPVLSAGGSLFVNCSTDCPSSEKIALETSLSKELVASGMGWAAFNLSNVTGNSRILCSVYCNGSQITGSSNITVYRLPERVELAPLPPWQPVGQNFTLRCQVEDGSPRTSLTVVLLRWEEELSRQPAVEEPAEVTATVLASRDDHGAPFSCRTELDMQPQGLGLFVNTSAPRQLRTFVLPVTPPRLVAPRFLEVETSWPVDCTLDGLFPASEAQVYLALGDQMLNATVMNHGDTLTATATATARADQEGAREIVCNVTLGGERREARENLTVFSFLGPIVNLSEPTAHEGSTVTVSCMAGARVQVTLDGVPAAAPGQPAQLQLNATESDDGRSFFCSATLEVDGEFLHRNSSVQLRVLYGPKIDRATCPQHLKWKDKTRHVLQCQARGNPYPELRCLKEGSSREVPVGIPFFVNVTHNGTYQCQASSSRGKYTLVVVMDIEAGSSH
notes: not shown: IgG1 portion

The target in assay [1] is T1, human αd/CD18 expressed on transfected cells (human, UniProt P05107 23-769).
T1 construct: whole, on cells; Heterodimer on COS, CHO or JY transfectants; also called αd/CD18 transfectants; αd/CD18 CHO transfected cells
Briefly: adhesion of transfected CHO cells to immobilized CAM, crystal violet, A570.

Assay [2] addresses T1, human αd/CD18 expressed on transfected …. The assay is described as follows: adhesion of αdβ2-transfected CHO cells to coated wells.
For assay [3], the target named is T2, LFA-1 leucine zipper fusion protein (UniProt P20701 26-1090; P05107 23-700).
T2 construct: also called LFA-1LZ; captured CD11a/CD18; not shown: leucine zipper strand
The assay is described as follows: ELISA, CAM/Ig on captured integrin. On the technique in general: An ELISA detects its analyte on a solid surface through an enzyme-linked reagent.

Assay [4] deals with T1, human αd/CD18 expressed on transfected …. The assay is described as follows: adhesion of transfected CHO cells to immobilized CAM, crystal violet.
For assay [5], the target named is T3, α4β1 expressed on CHO cells (UniProt P13612 34-1032; P05556 21-798, limits assumed).
T3 construct: whole, on cells; also called VLA-4; α4 transformed CHO cells
T3 sequence (P13612 34-1032 limits assumed, chain 1 of 2): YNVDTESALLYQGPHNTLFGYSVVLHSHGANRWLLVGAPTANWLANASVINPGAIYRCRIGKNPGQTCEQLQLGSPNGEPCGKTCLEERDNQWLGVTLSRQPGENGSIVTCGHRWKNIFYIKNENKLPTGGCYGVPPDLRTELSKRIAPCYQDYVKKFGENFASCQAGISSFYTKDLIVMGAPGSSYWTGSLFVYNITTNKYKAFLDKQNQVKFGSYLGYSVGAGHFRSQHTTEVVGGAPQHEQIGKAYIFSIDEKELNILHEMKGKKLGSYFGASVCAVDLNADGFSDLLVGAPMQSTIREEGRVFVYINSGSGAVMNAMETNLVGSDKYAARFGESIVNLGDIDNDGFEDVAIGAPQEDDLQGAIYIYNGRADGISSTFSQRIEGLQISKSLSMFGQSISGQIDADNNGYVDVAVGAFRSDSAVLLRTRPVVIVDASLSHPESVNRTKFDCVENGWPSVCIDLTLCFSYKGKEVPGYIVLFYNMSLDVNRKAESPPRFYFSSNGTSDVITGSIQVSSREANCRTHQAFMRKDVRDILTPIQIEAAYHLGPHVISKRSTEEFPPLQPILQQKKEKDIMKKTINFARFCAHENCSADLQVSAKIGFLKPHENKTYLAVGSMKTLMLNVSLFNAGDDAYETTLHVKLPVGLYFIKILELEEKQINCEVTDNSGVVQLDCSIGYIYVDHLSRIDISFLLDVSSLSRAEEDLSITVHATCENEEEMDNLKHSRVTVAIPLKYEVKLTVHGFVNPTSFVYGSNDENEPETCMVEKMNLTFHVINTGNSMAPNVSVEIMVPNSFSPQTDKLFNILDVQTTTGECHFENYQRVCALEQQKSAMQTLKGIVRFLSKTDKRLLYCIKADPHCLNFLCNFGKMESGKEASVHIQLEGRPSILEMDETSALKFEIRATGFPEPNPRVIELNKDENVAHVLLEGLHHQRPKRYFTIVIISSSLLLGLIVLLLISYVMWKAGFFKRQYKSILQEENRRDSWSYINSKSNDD
T3 sequence (P05556 21-798 limits assumed, chain 2 of 2): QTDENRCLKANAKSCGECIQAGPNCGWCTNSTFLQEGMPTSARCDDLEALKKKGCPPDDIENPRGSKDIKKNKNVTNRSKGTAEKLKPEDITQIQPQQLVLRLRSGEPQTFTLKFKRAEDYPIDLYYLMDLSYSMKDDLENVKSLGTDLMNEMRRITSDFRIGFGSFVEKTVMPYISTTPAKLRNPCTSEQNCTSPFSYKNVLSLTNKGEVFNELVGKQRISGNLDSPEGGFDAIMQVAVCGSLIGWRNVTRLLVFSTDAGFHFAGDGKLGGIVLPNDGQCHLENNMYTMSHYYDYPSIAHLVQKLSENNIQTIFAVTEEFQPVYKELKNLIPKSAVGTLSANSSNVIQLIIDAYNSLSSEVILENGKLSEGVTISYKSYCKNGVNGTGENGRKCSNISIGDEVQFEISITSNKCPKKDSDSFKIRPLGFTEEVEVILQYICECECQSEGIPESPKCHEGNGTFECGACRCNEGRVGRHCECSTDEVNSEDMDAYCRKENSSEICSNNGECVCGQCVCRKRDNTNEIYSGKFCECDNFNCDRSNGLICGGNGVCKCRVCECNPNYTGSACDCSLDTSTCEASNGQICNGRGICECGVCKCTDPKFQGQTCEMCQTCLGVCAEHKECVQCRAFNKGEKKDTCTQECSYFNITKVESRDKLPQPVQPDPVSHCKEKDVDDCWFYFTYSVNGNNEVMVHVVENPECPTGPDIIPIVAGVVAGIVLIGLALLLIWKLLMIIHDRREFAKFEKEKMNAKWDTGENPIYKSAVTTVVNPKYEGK
Described as above.

Assay [6] concerns the target B6. The assay is described as follows: ELISA, detection with anti-IgG4 HP6023.
Assay [7] has as its target B3. The assay is described as follows: ELISA, detection with anti-IgG4 HP6023.
Assay [8] concerns the target B5. The assay is described as follows: ELISA, detection with anti-IgG4 HP6023.
The target of assay [9] is T2, LFA-1 leucine zipper fusion protein. The assay is described as follows: ELISA, CAM/Ig on LFA-1LZ captured with TS2/4.1.
Assay [10] has as its target T1, human αd/CD18 expressed on transfected …. Briefly: summary of the adhesion and flow cytometry assays. (In general: In flow cytometry, cells or beads pass a laser one at a time.)

B1: VCAM-1 domains 1 and 2 fused to human immunoglobulin Fc (Fc fusion, UniProt P19320 25-220, looked up)
chain: FKIETTPESRYLAQIGDSVSLTCSTTGCESPFFSWRTQIDSPLNGKVTNEGTTSTLTMNPVSFGNEHSYLCTATCESRKLEKGIQVEIYSFPKDPEIHLSGPLEAGKPITVKCSVADVYPFDRLEIDLLKGDHLMKSQEFLEDADRKSLETKSLEVTFTPVIEDIGKVLVCRAKLHIDEMDSVPTVRQAVKELQVY
notes: domain: domains 1 and 2; also called two domain form of VCAM-1; two domain VCAM-1 expression construct; not shown: human immunoglobulin Fc
For the molecule B1, the binding result in [1] is “binds”.

B2: E-selectin (immobilized) (ligand, UniProt P16581 22-556, looked up)
chain: WSYNTSTEAMTYDEASAYCQQRYTHLVAIQNKEEIEYLNSILSYSPSYYWIGIRKVNNVWVWVGTQKPLTEEAKNWAPGEPNNRQKDEDCVEIYIKREKDVGMWNDERCSKKKLALCYTAACTNTSCSGHGECVETINNYTCKCDPGFSGLKCEQIVNCTALESPEHGSLVCSHPLGNFSYNSSCSISCDRGYLPSSMETMQCMSSGEWSAPIPACNVVECDAVTNPANGFVECFQNPGSFPWNTTCTFDCEEGFELMGAQSLQCTSSGNWDNEKPTCKAVTCRAVRQPQNGSVRCSHSPAGEFTFKSSCNFTCEEGFMLQGPAQVECTTQGQWTQQIPVCEAFQCTALSNPERGYMNCLPSASGSFRYGSSCEFSCEQGFVLKGSKRLQCGPTGEWDNEKPTCEAVRCDAVHQPPKGLVRCAHSPIGEFTYKSSCAFSCEEGFELHGSTQLECTSQGQWTEEVPSCQVVKCSSLAVPGKINMSCSGEPVFGTVCKFACPEGWTLNGSAARTCGATGHWSGLLPTCEAPTESNIP
notes: Control adhesion molecule; also called E-selection
Consider B2, for which, in assay [2], the binding result is listed as “no binding (tested: 100 ng/ml coat)”.

Consider B3, for which the fold above background in assay [3] was roughly 15 fold. Moreover, the binding result in assay [4] and in assay [5] was “no binding (tested: 0.5 µg/well)” throughout.

B4: CD11a I domain/IgG chimeric protein (Fc fusion, UniProt P20701 153-335, looked up)
chain: GNVDLVFLFDGSMSLQPDEFQKILDFMKDVMKKLSNTSYQFAAVQFSTSYKTEFDFSDYVKRKDPDALLKHVKHMLLLTNTFGAINYVATEVFREELGARPDATKVLIIITDGEATDSGNIDAAKDIIRYIIGIGKHFQTKESQETLHKFASKPASEFVKILDTFEKLKDLFTELQKKIYVIE
notes: domain: I domain; Negative control in the I domain ELISA; also called CD11a/IgG4 protein; not shown: IgG4 portion
On to B4, for which the binding result in [6], in assay [7] and in [8] was “no binding” throughout.

For B5, the binding result in [9] was “no binding”.

In the case of B6, the binding result in assay [10] was “binds”.
